Experimental data from the supplement of paper PMC10567573.

B1: TSPAN10 (parent)
chain: EGCGPPLRRWLRANLAASGGYAIA
B2: BCL2L13 (parent)
chain: YIIQQGGWGTVFSLESEEEEYPGI

Variants of: B1
Test: protein stability index of a GFP-peptide fusion (GPS, HEK-293T) (PSI 1-6); higher = more stable
Details: c terminus: a fixed tail appended
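Also: lentivirally expressed fusions sorted by FACS into six bins by GFP to DsRed ratio, PSI derived from sequencing read proportions per bin multiplied by bin number.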

Variant	protein stability index
G2P	1.85
P5H	1.7
R12Y	2.84
R12F	2.29
R12I	2.82
I23C	2.15
C3I	2.83
L7E	1.78
G20T	1.63
G20Q	2.53
L11E	2.57
W10T	3.01
G19C	1.46
G19W	3.26
G19H	2.32
G19P	2.13

Variant	protein stability index
G19I	1.93
G19Q	1.43
E1T	1.39
E1S	2.37
E1G	2
L15T	1.95
L15A	2.36
N14G	2.24
N14Q	1.39
N14M	2.08
A13W	2.03
A13I	1.67
G4T	2.5
G4Y	1.83
A17Y	1.97
A17S	1.84

Variants of: B2
Test: as above
Details: c terminus: a fixed tail appended

Variant	protein stability index
E20D	1.71
E20I	3.47
E20P	2.87
E20H	2.46
E20G	1.51
E20N	2.17
E20R	2.98
E20K	2.15
E20M	1.31
E20S	1.82
E20C	1.91
E20A	1.13
F12V	1.65
F12K	2.39
F12I	1.64
F12E	2.66
F12H	1.75
F12T	2.13
F12A	2.5
F12Q	1.24
F12L	1.81
F12N	1.56
F12S	2.03
F12M	2.98
F12D	2.35
F12R	1.83

Variant	protein stability index
F12P	1.58
I3H	2.71
I3E	2.63
I3A	1.58
I3F	2.27
I3P	2.56
I3S	2.04
E17T	2.81
E17Y	3.21
E17P	4.07
E17H	2.65
E17I	1.76
E17A	1.23
E17C	2.77
E17D	1.19
E17N	2.31
E17F	2.7
E17W	2.52
V11W	1.42
V11S	2.61
V11P	1.76
V11D	2.67
V11Q	1.86
V11I	1.78
V11N	1.98
V11A	2.12

Variant	protein stability index
V11R	1.91
V11H	2.25
V11G	3.31
V11T	1
V11K	1.64
V11Y	2.04
V11L	1.36
V11F	2.93
E15L	2.57
E15K	1.27
E15P	2.02
E15Q	2.31
E15G	1.82
E15T	1.67
E15N	2.34
E15F	2.92
E15S	2.81
E15M	3.49
E18S	2.56
E18T	1.99
E18D	1.96
E18L	1.92
E18Q	2.13
E18N	2.86
E18H	1.85
E18P	1.53

Variant	protein stability index
E18F	2.56
S16T	2.25
S16I	4.26
S16M	2.68
S16F	2.94
S16V	1.65
S16E	1.59
S16K	2.69
S16C	3.01
S16D	1.76
S16Y	2.61
S16A	1.69
S16N	1.83
S16G	2.38
S16H	2.01
G23V	1.85
G23I	1.76
G23E	2.43
G23H	1
G23W	1.93
G23R	1.28
G23P	1.97
G23Y	2.18
G23T	2.58
G23M	2.57
G23Q	1.84

Variant	protein stability index
G23L	2.01
G23K	2.61
G23A	1.21
G23N	1.16
G23D	2.7
G23F	1.26
Y21M	2.26
Y21L	2.11
Y21T	1.21
Y21G	2.02
Y21S	1.14
Y21D	2.22
Y21H	2.53
Y21I	1.59
Y21R	1.75
Y21Q	2.33
Y21E	1.64
Y21N	1.74
I24K	1.75
I24S	1.23
I24G	2.85
I24A	1.39
I24D	1.54
I24H	1.63
I24C	1.34
I24P	2.14

Variant	protein stability index
I24M	1.53
I24T	1.1
I24V	1.78
I24N	2.39
I24L	1.82
I24Y	1.22
I24F	2.58
S13Y	1.71
S13F	2.46
S13N	3.23
S13C	1.49
S13L	1.24
S13D	2.72
S13E	1.33
S13V	2.28
S13G	1.74
S13H	1.43
S13T	1.62
S13P	1.38
Q5W	2.16
Q5R	1.92
Q5N	1.73
Q5T	1.72
Q5E	1.33
Q5G	1.69
Q5M	1.67

Variant	protein stability index
L14Y	1.84
L14Q	1.78
L14W	1.06
L14I	1.76
L14D	2.21
L14R	1.87
L14T	2.2
L14K	1.5
L14S	2.23
L14H	1
L14V	1.98
L14P	1.87
L14E	2.57
Y1G	4.05
Y1L	1.87
Y1D	3.47
Y1C	2.47
Y1T	3.75
Y1R	3.87
Y1V	2.57
Y1A	3.38
Y1K	3.39
Y1E	2.86
Y1N	4.12
Y1P	4.31
Y1I	1.6

Variant	protein stability index
Y1F	1.18
Y1Q	3.18
Y1H	3.19
G9V	3.32
G9R	1.06
G9E	2.65
G9S	1.68
G9I	3.4
G9L	3.44
G9A	1.62
G9H	1.42
G9C	3.36
G9K	1.7
G9Q	1.81
G9D	1.13
G9T	3
G9P	1.09
P22I	3.56
P22L	2.9
P22A	2
P22E	2.22
P22K	2.65
P22N	1.42
P22S	2.18
P22D	2.69
P22H	1.7

Variant	protein stability index
P22T	2.02
P22R	1.92
P22V	1.37
P22Q	1.47
P22M	1.42
P22Y	1.38
T10F	2.42
T10R	1.6
T10P	1.07
T10E	1.17
T10S	2.34
T10I	3.06
T10N	2.35
T10M	1.4
T10H	1.11
T10D	1.31
G6H	1.48
G6R	2.02
G6E	2.06
G6T	2.31
G6W	1.14
G6P	2.12
G6N	2.15
G6D	1.42
G6F	1.97
G6S	1.73

Variant	protein stability index
G6K	2.9
G6V	1.23
Q4E	1.4
Q4R	2.35
Q4H	1.2
Q4W	2.88
Q4A	2.19
Q4V	3.01
Q4N	1.58
I2Q	1.98
I2K	3.31
I2M	2.86
I2R	2.42
I2A	1.96
I2W	2.38
I2F	2.68
I2L	2.76
I2G	2.95
I2H	2.9
I2E	5.34
I2T	2.75
I2Y	2.46
I2D	3.9
G7I	2.58
G7H	2.14
G7L	1.82

Variant	protein stability index
G7D	1.87
G7P	1.58
G7N	1.05
G7T	1.45
G7C	1.72
G7K	2.06
G7A	2.35
G7Y	3.6
G7R	1.73
G7E	1.74
G7Q	2.85
G7S	1.46
W8I	1.66
W8R	2.37
W8Q	3.93
W8L	1.99
W8M	1.88
W8D	2.56
W8H	2.81
W8G	2.58
W8N	3.09
W8K	2.1
W8S	3.17
W8P	2.97
W8F	2.83
W8Y	2.84

Variant	protein stability index
W8C	2.31
W8A	2.02
W8V	1.53
W8E	3.31
W8T	2.84
E19R	1.93
E19C	3.36
E19L	2.41
E19H	2.29
E19Y	2.41
E19W	2.31
E19P	1.82
E19T	2.34
E19Q	3.34
E19D	1.19
E19S	2.39
